According to publication PMC6786517:

Molecular target: F-actin
Assay: co-sedimentation; F-actin co-sedimentation of HA-cortactin WT, 8KQ and 8KR; gray values of cortactin in pellets and supernatants

Row | ratio of gray value of cortactin in pellets and supernatants | Substance
1 | 0.781 | HA-tagged acetylation-mimetic cortactin (8KQ) (from UniProt Q60598 1-546) (natural protein)
2 | 1.03 | HA-tagged cortactin (from UniProt Q60598 1-546) (natural protein)
3 | 1.59 | HA-tagged non-acetylation-mimetic cortactin (8KR) (from UniProt Q60598 1-546) (natural protein)
